Measured values taken from patent US7754689B2, “Finger-1 peptide analogs of the TGF-β superfamily” (Wyeth LLC, priority 2006, dated 2010).
No end group written: not given here.

Molecular target: T1, BMP-12 (Homo sapiens, UniProt Q7Z4P5)
T1 sequence (Q7Z4P5 322-450): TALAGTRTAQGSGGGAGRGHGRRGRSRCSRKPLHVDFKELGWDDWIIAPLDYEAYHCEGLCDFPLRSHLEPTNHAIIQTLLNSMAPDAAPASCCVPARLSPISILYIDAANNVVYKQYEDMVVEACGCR
Test: Filter-plate binding and elution of BMP-12 on peptide-coupled affinity resins
Method: The coupled resins, plus an unconjugated resin for use as a control, were suspended in 16% ethanol, 150 mM NaCl, and 20 mM Tris buffer at pH 7.5 at a 25% v/v ratio (e.g., […]). A Tecan liquid-handling robot was employed to aliquot 200 μL of each slurry into one of eight rows of a 96 well polystyrene filter plate (0.45 μm hydrophilic filters, Whatman catalog number 770-1806). Spinning at 1200 g for 3 min removed the liquid phase, leaving 50 μL of wet resin on the filters. The resins were then equilibrated with the loading buffers listed in Table 6 (K is a coefficient characterizing the strength of protein binding to a particular resin in a particular buffer). […] The resins were loaded by transferring 150 μL from the load plate to the filter plate and then incubating 20 min on a shaking platform to facilitate binding. The filter plate was spun down and the filtrate collected in a 96 well UV plate. The protein concentration in the filtrate, or flow-through, was calculated as (A280-A320)/1.3. The filter plate was then washed with 150 μL of 100 mM acetic acid, followed by 150 μL of 4M guanidine-HCl and 50 mM sodium acetate at pH 4.0. The protein concentration was measured in the new filtrate as described above. […] However, for peptides 750 and 751, the binding was strong in 25 mM MES at pH 6 but weak in 50 mM acetic acid with 0.1 M NaCl at pH 3.0, which can allow an efficient binding-elution process without the need for chaotrops or organic reagents. Flow-through and acetic acid elution samples from column 4 of the plate (loaded with MES pH 6) were analyzed on a gel (FIG. 14).

[1] = loaded in condition 1: 50 mM Acetic Acid, 0.1 M NaCl, pH 2.9
[2] = loaded in condition 2: 50 mM Acetic Acid, 0.1 M NaCl, pH 4.0
[3] = loaded in condition 3: 25 mM Na Acetate pH 5.0
[4] = loaded in condition 4: 25 mM MES pH 6.0
[5] = loaded in condition 5: 25 mM HEPES pH 7.0

## Ac-ELGWDDWIIAPLDYEAYHSEGLK [Peptide 749]
[1]
  Yield (BMP-12 recovered from resin): 86%
[2]
  Yield (BMP-12 recovered from resin): 88%
[3]
  Yield (BMP-12 recovered from resin): 90%
[4]
  Yield (BMP-12 recovered from resin): 88%
[5]
  Yield (BMP-12 recovered from resin): 102%
Loading buffers 1-5
  binding of BMP12 by resin coupled to peptide: high affinity

## Ac-LYV**SDVGWNDWIVK (Ac-LYVSDVGWNDWIVK; not fully specified (residue 3); printed as Ac-LYV**SDVGWNDWIVK) [Peptide 746]
[1]
  Yield (BMP-12 recovered from resin): 91%
[2]
  Yield (BMP-12 recovered from resin): 88%
[3]
  Yield (BMP-12 recovered from resin): 97%
[4]
  Yield (BMP-12 recovered from resin): 87%
[5]
  Yield (BMP-12 recovered from resin): 100%

## Ac-LYVDFSDVGWNDWIVAPPGYHAFYSHGEK [Peptide 747]
[1]
  Yield (BMP-12 recovered from resin): 81%
[2]
  Yield (BMP-12 recovered from resin): 68%
[3]
  Yield (BMP-12 recovered from resin): 90%
[4]
  Yield (BMP-12 recovered from resin): 88%
[5]
  Yield (BMP-12 recovered from resin): 90%
Loading buffers 1-5
  binding of BMP12 by resin coupled to peptide: high affinity

## Ac-RDLGWQDWIIAPEGYAAFYSDGEK [Peptide 748]
[1]
  Yield (BMP-12 recovered from resin): 85%
[2]
  Yield (BMP-12 recovered from resin): 84%
[3]
  Yield (BMP-12 recovered from resin): 89%
[4]
  Yield (BMP-12 recovered from resin): 87%
[5]
  Yield (BMP-12 recovered from resin): 87%
Loading buffers 1-5
  binding of BMP12 by resin coupled to peptide: high affinity

## Ac-SDVGWNDWIVAPPGYHAFYCHGEK [Peptide 750]
25 mM MES at pH 6
  binding of BMP12 by resin coupled to peptide: strong
50 mM acetic acid with 0.1 M NaCl at pH 3.0
  binding of BMP12 by resin coupled to peptide: weak
[1]
  Yield (BMP-12 recovered from resin): 100%
[2]
  Yield (BMP-12 recovered from resin): 93%
[3]
  Yield (BMP-12 recovered from resin): 96%
[4]
  Yield (BMP-12 recovered from resin): 85%
[5]
  Yield (BMP-12 recovered from resin): 109%
